Seven sequences from the supplement of paper PMC11246515 can be followed below.

The data set is described as follows: total protein half-life in vivo (active degradation + dilution); higher = more stable protein.
[1] abbreviates: E. coli NCM3722 delta-clpP delta-lon delta-hslV, growth: N-lim chemostat, doubling time 6 h.
Where [2] appears, read: E. coli NCM3722 delta-clpP, growth: N-lim chemostat, doubling time 6 h.
The mark [3] stands for this setting: E. coli NCM3722 delta-hslV, growth: N-lim chemostat, doubling time 6 h.
Where [4] appears, read: E. coli NCM3722 delta-lon, growth: N-lim chemostat, doubling time 6 h.
[5] abbreviates: E. coli NCM3722 delta-smpB, growth: N-lim chemostat, doubling time 6 h.
The mark [6] stands for this setting: wild type E. coli NCM3722, growth: C-lim chemostat, doubling time 3 h.
Where [7] appears, read: wild type E. coli NCM3722, growth: C-lim chemostat, doubling time 6 h.
Where [8] appears, read: wild type E. coli NCM3722, growth: C-lim chemostat, doubling time 12 h.
Where [9] appears, read: wild type E. coli NCM3722, growth: N-lim chemostat, doubling time 6 h.
The mark [10] stands for this setting: wild type E. coli NCM3722, growth: N-lim chemostat, doubling time 12 h.
[11] abbreviates: wild type E. coli NCM3722, growth: P-lim chemostat, doubling time 6 h.
Where [12] appears, read: wild type E. coli NCM3722, growth: P-lim chemostat, doubling time 12 h.

± gives the standard deviation of the averaged measurements.

For “MSPIEKSSKLENVCYDIRGPVLKEAKRLEEEGNKVLKLNIGNPAPFGFDAPDEILVDVIRNLPTAQGYCDSKGLYSARKAIMQHYQARGMRDVTVEDIYIGNGVSELIVQAMQALLNSGDEMLVPAPDYPLWTAAVSLSSGKAVHYLCDESSDWFPDLDDIRAKITPRTRGIVIINPNNPTGAVYSKELLMEIVEIARQHNLIIFADEIYDKILYDDAEHHSIAPLAPDLLTITFNGLSKTYRVAGFRQGWMVLNGPKKHAKGYIEGLEMLASMRLCANVPAQHAIQTALGGYQSISEFITPGGRLYEQRNRAWELINDIPGVSCVKPRGALYMFPKIDAKRFNIHDDQKMVLDFLLQEKVLLVQGTAFNWPWPDHFRIVTLPRVDDIELSLSKFARFLSGYHQL [P0A959]”, the “total protein half-life in vivo” value turned out to be 4.25 ± 0.35 h under setting [1]; 3.41 ± 0.16 h under setting [2]; 3.89 ± 0.23 h under setting [3]; 4.86 ± 1.1 h under setting [4]; 3.88 ± 0.19 h under setting [5]; 3.14 ± 0.28 h under setting [6]. The “total protein half-life in vivo” value is, setting by setting: under setting [7], 5.63 ± 0.23 h; under setting [8], 9.16 ± 0.84 h; under setting [9], 3.76 ± 0.29 h; under setting [10], 7.13 ± 0.82 h; under setting [11], 6.06 ± 0.87 h; under setting [12], 11.78 ± 0.1 h.

As to “MPFKPLVTAGIESLLNTFLYRSPALKTARSRLLGKVLRVEVKGFSTSLILVFSERQVDVLGEWAGDADCTVIAYASVLPKLRDRQQLTALIRSGELEVQGDIQVVQNFVALADLAEFDPAELLAPYTGDIAAEGISKAMRGGAKFLHHGIKRQQRYVAEAITEEWRMAPGPLEVAWFAEETAAVERAVDALTKRLEKLEAK [P0ADP7]”, the “total protein half-life in vivo” value stood at 5.27 ± 0.14 h under setting [1]; 4.977 ± 0.043 h under setting [4]; 4.88 ± 0.14 h under setting [5]; 2.77 ± 0.21 h under setting [6]; 4.84 ± 0.24 h under setting [7]; 7.62 ± 0.27 h under setting [8]. The “total protein half-life in vivo” value is, setting by setting: under setting [9], 4.76 ± 0.091 h; under setting [10], 8.56 ± 0.1 h; under setting [11], 4.93 ± 0.25 h; under setting [12], 8.919 ± 0.012 h.

As for “MIIPALDLIDGTVVRLHQGDYGKQRDYGNDPLPRLQDYAAQGAEVLHLVDLTGAKDPAKRQIPLIKTLVAGVNVPVQVGGGVRSEEDVAALLEAGVARVVVGSTAVKSQDMVKGWFERFGADALVLALDVRIDEQGNKQVAVSGWQENSGVSLEQLVETYLPVGLKHVLCTDISRDGTLAGSNVSLYEEVCARYPQVAFQSSGGIGDIDDVAALRGTGVRGVIVGRALLEGKFTVKEAIACWQNA”, the “total protein half-life in vivo” value is, setting by setting: under setting [1], 4.64 ± 0.11 h; under setting [2], 3.46 ± 0.32 h; under setting [3], 4.07 ± 0.29 h; under setting [4], 4.52 ± 0.096 h; under setting [5], 3.23 ± 0.34 h; under setting [6], 3.21 ± 0.094 h. Also, the “total protein half-life in vivo” value was 5.72 ± 0.66 h under setting [7]; 10 ± 1.4 h under setting [8]; 3.66 ± 0.097 h under setting [9]; 5.29 ± 0.65 h under setting [10]; 5.28 ± 0.072 h under setting [11]; 9.43 ± 0.71 h under setting [12].

Consider “MKLVHMASGLAVAIALAACADKSADIQTPAPAANTSISATQQPAIQQPNVSGTVWIRQKVALPPDAVLTVTLSDASLADAPSKVLAQKAVRTEGKQSPFSFVLSFNPADVQPNARILLSAAITVNDKLVFITDTVQPVINQGGTKADLTLVPVQQTAVPVQASGGATTTVPSTSPTQVNPSSAVPAPTQY”, for which the “total protein half-life in vivo” value under setting [1] turned out to be 4.41 ± 0.88 h; the “total protein half-life in vivo” value under setting [2] was 6.1 ± 0.34 h; the “total protein half-life in vivo” value under setting [3] is 6.08 h; the “total protein half-life in vivo” value under setting [4] stood at 6.69 ± 0.2 h; the “total protein half-life in vivo” value under setting [5] amounted to 5.23 ± 0.59 h; the “total protein half-life in vivo” value under setting [6] was found to be 3.57 ± 0.22 h. For the same sequence, the “total protein half-life in vivo” value runs as follows: under setting [7], 5.53 ± 0.0062 h; under setting [8], 11.4 ± 4.4 h; under setting [9], 5.25 h; under setting [10], 9.14 ± 0.82 h; under setting [11], 5.51 ± 0.33 h; under setting [12], 11.8 ± 0.68 h.

As for “MKELVVVAIGGNSIIKDNASQSIEHQAEAVKAVADTVLEMLASDYDIVLTHGNGPQVGLDLRRAEIAHKREGLPLTPLANCVADTQGGIGYLIQQALNNRLARHGEKKAVTVVTQVEVDKNDPGFAHPTKPIGAFFSDSQRDELQKANPDWCFVEDAGRGYRRVVASPEPKRIVEAPAIKALIQQGFVVIGAGGGGIPVVRTDAGDYQSVDAVIDKDLSTALLAREIHADILVITTGVEKVCIHFGKPQQQALDRVDIATMTRYMQEGHFPPGSMLPKIIASLTFLEQGGKEVIITTPECLPAALRGETGTHIIKT”, the “total protein half-life in vivo” value is 2.78 ± 1.3 h under setting [6] and 5.03 h under setting [7].

Turning to “MSVIGRIHSFESCGTVDGPGIRFITFFQGCLMRCLYCHNRDTWDTHGGKEVTVEDLMKEVVTYRHFMNASGGGVTASGGEAILQAEFVRDWFRACKKEGIHTCLDTNGFVRRYDPVIDELLEVTDLVMLDLKQMNDEIHQNLVGVSNHRTLEFAKYLANKNVKVWIRYVVVPGWSDDDDSAHRLGEFTRDMGNVEKIELLPYHELGKHKWVAMGEEYKLDGVKPPKKETMERVKGILEQYGHKVMF [P0A9N4]”, the “total protein half-life in vivo” value under setting [1] worked out at 4.86 ± 0.073 h; the “total protein half-life in vivo” value under setting [2] turned out to be 5.05 ± 1.6 h; the “total protein half-life in vivo” value under setting [3] came to 5.08 ± 0.1 h; the “total protein half-life in vivo” value under setting [4] was found to be 4.485 ± 0.029 h; the “total protein half-life in vivo” value under setting [5] is 3.9 ± 0.28 h; the “total protein half-life in vivo” value under setting [6] worked out at 2.9 ± 0.1 h. Besides, the “total protein half-life in vivo” value came to 5.48 ± 1 h under setting [7]; 9.78 ± 0.27 h under setting [8]; 4.41 ± 0.36 h under setting [9]; 6.62 ± 0.36 h under setting [10]; 4.78 ± 0.3 h under setting [11]; 10.1 ± 0.91 h under setting [12].

As for “MIKFLSALILLLVTTAAQAERIRDLTSVQGVRQNSLIGYGLVVGLDGTGDQTTQTPFTTQTLNNMLSQLGITVPTGTNMQLKNVAAVMVTASLPPFGRQGQTIDVVVSSMGNAKSLRGGTLLMTPLKGVDSQVYALAQGNILVGGAGASAGGSSVQVNQLNGGRITNGAVIERELPSQFGVGNTLNLQLNDEDFSMAQQIADTINRVRGYGSATALDARTIQVRVPSGNSSQVRFLADIQNMQVNVTPQDAKVVINSRTGSVVMNREVTLDSCAVAQGNLSVTVNRQANVSQPDTPFGGGQTVVTPQTQIDLRQSGGSLQSVRSSASLNNVVRALNALGATPMDLMSILQSMQSAGCLRAKLEII [P0A6S3]”, the “total protein half-life in vivo” value amounted to 2.203 ± 0.022 h under setting [6], 4.68 h under setting [7] and 8.58 ± 1.3 h under setting [8].
